Source: patent US20250144194A1 (KAIMI BIOMEDICINE CHENGDU, published 2025)
Where a chain is given by its changes, count along the chain named.

T1: FcγRIIA protein (UniProt P12318 36-218, limits assumed)
T1 construct: also called hFcγRIIA
T1 sequence (looked up): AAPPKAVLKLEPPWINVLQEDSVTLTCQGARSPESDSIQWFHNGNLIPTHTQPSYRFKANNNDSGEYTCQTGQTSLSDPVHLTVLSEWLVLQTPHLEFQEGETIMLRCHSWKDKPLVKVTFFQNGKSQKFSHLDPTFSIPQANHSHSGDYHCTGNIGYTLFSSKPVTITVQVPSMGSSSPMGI

B1: Seq2-Sf9 (other)
chain: VDKKIVPADCGCAPCICAVPEVSSVFIFPPKPKDVLTITLTPKVTCVVVDISKDDPEVQFSWFVDDVEVHTAQTQPREEQFNSTFRSVSELPIMHQDWLNGKEFKCRVNSAAFPAPIEKTISKTKGRPKAPQVYTIPPPKEQMAKDKVSLTCMITDFFPEDITVEWQWNGQPAENYKNTQPIMDTDGSYFVYSKLNVQKSNWEAGNTFTCSVLHEGLHNHHTEKSLSHSPGL
modifications: non-mammalian (insect, Sf9) N-glycosylation at position 297 (EU numbering), without sialic acid
notes: Expressed from the pFastBacHTa-gp64 vector in Sf9 cells and purified from the supernatant by Protein A, about 26 kDa on SDS-PAGE; also called mouse Fc with three mutations
B2: Seq3-Sf9 (other)
chain: B1 chain with A115L, I117E
modifications: non-mammalian (insect, Sf9) N-glycosylation at position 297 (EU numbering), without sialic acid
notes: also called mouse Fc with five mutations

Molecular target: T1, FcγRIIA protein
Test: BLI, multi-concentration (5000-312.5 nM of Fc variant)
Source text: The Seq2-Sf9 and Seq3-Sf9 are identified using Coomassie Brilliant Blue stained SDS-PAGE gel, with BSA as a control protein. The arrows indicate the positions of Seq2-Sf9 and Seq3-Sf9, and it can be determined that the purified protein is obtained with a molecular weight of about 26 kDa. […] The curves shown from bottom to top indicate that the concentrations of the Seq2-Sf9 and Seq3-Sf9 proteins […] in sequence.

Binder | Kd [nM]
B1 | 789
B2 | 450
